Biological target: the molecule itself
Assay: SEC-MALS of purified IpaB in solution (self-association)

B1: Invasion Plasmid Antigen B (IpaB), wild type, full length (other)
chain: MHNVNTTTTGLSLAKILASTELGDNTIQAGNDAANKLFSLTIADLTANKNINTTNAHSTSNILIPELKAPKSLNASSQLTLLIGNLIQILGEKSLTALTNKITAWKSQQQARQQKNLEFSDKINTLLSETEGLTRDYEKQINKLKNADSKIKDLENKINQIQTRLSELDPDSPEKKKLSREEIQLTIKKDAAVKDRTLIEQKTLSIHSKLTDKSMQLEKEIDSFSAFSNTASAEQLSTQQKSLTGLASVTQLMATFIQLVGKNNEESLKNDLALFQSLQESRKTEMERKSDEYAAEVRKAEELNRVMGCVGKILGALLTIVSVVAAAFSGGASLALADVGLALMVTDAIVQAATGNSFMEQALNPIMKAVIEPLIKLLSDAFTKMLEGLGVDSKKAKMIGSILGAIAGALVLVAAVVLVATVGKQAAAKLAENIGKIIGKTLTDLIPKFLKNFSSQLDDLITNAVARLNKFLGAAGDEVISKQIISTHLNQAVLLGESVNSATQAGGSVASAVFQNSASTNLADLTLSKYQVEQLSKYISEAIEKFGQLQEVIADLLASMSNSQANRTDVAKAILQQTTA
notes: also called WT IpaB; IpaB WT; not shown: histidine tag
binding result: binds

— US20220125907A1 (VAXCYTE, published 2022)
